Measured values as given in patent publication US7569579B2, “Cyclopropyl compounds as ccr5 antagonists” (SmithKline Beecham Corporation, priority 2002, dated 2009).

Target: T1, human CCR5 chemokine receptor (Homo sapiens, UniProt P51681)
T1 construct: host or cells: Chinese Hamster Ovary (CHO) cells; membranes prepared from the cell pellet
Assay: CC-Chemokine Receptor-5 binding by scintillation proximity assay (CCR5 SPA), displacement of 125I-MIP1α
Conditions: standard compound, 14-point concentration-response curve in triplicate
Protocol: CC-Chemokine Receptor-5 Binding by Scintillation Proximity Assay (CCR5 SPA) Scintillation Proximity Assay for the Human CC-Chemokine Receptor, CCR-5
This protocol describes a high-throughput screen using SPA binding to identify compounds that inhibit binding of ^125I-MIP1α to the human CCR5 chemokine receptor.
Human CCR5 receptors were expressed in Chinese Hamster Ovary (CHO) cells, registration # 12025. Cells were grown in suspension and a 50 to 80 ml CCR5 cell pellet was prepared. […]
The saturation curve binding experiment is performed by adding varying amounts of [^125I]MIP1α (0-8.5 nM to membranes and beads in concentrations chosen from the optimal protein/bead ratio. The data is analyzed using a non-linear curve-fitting program. The Kd and Bmax are derived from the curve. […]

T1 sequence (P51681 whole entry): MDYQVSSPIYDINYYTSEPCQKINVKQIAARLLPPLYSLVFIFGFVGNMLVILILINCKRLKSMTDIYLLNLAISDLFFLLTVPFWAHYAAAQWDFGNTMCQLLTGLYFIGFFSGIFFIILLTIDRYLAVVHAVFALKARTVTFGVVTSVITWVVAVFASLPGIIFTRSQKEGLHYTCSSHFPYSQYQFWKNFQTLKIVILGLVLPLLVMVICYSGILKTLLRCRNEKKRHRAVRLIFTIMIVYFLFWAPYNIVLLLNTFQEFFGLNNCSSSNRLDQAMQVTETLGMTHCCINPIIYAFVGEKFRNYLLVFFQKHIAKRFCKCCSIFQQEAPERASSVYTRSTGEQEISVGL

average historical pKi: 7.6
Substance: MIP1α: standard compound of the CCR5 SPA; natural chemokine ligand of CCR5 (Peprotech)
